Test results from PMC2756588.

T1: Abp1, P15891
T1 sequence (P15891 535-592, looked up): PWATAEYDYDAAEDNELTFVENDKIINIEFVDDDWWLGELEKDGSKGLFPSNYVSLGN

T2: Bbc1, P47068
T2 sequence (P47068 1-78, looked up): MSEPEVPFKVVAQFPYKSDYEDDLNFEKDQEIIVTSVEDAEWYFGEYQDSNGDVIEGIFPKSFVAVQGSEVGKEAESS

T3: Boi1, P38041
T3 sequence (P38041 1-86, looked up): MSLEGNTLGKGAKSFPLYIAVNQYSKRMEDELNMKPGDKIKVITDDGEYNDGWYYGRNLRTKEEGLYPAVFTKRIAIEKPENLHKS

T4: Boi2, P39969
T4 sequence (P39969 32-116, looked up): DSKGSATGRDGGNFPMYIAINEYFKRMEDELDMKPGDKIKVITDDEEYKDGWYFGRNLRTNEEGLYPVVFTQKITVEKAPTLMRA

T5: Bud14, P27637
T5 sequence (P27637 247-328, looked up): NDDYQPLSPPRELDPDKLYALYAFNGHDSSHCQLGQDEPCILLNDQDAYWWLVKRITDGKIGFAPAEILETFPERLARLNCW

T6: Bzz1-1, P38822
T6 sequence (P38822 478-572, looked up): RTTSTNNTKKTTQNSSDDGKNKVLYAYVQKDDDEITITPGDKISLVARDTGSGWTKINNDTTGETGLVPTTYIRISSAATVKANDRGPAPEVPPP

T7: Bzz1-2, P38822
T7 sequence (P38822 568-633, looked up): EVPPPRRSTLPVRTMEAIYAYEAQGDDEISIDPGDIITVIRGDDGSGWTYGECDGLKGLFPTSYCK

T8: Cdc25, P04821
T8 sequence (P04821 50-136, looked up): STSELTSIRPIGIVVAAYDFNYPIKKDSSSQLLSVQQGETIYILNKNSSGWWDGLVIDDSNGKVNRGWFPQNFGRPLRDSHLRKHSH

T9: Cyk3, Q07533
T9 sequence (Q07533 1-83, looked up): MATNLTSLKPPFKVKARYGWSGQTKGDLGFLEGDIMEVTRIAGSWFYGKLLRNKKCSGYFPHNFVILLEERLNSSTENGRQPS

T10: Fus1, P11710
T10 sequence (P11710 432-512, looked up): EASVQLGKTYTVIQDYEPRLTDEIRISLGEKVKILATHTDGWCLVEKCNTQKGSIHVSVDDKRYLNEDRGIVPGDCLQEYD

T11: Hof1, Q05080
T11 sequence (Q05080 590-669, looked up): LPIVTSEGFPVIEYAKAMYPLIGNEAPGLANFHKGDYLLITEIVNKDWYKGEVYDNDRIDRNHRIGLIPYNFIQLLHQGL

T12: Hse1, P38753
T12 sequence (P38753 208-285, looked up): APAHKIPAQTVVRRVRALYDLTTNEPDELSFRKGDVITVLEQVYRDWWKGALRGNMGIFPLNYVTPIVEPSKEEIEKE

T13: Lsb1, P53281
T13 sequence (P53281 45-122, looked up): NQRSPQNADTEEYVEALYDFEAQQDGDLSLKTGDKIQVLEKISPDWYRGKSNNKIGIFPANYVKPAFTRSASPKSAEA

T14: Lsb3, P43603
T14 sequence (P43603 385-451, looked up): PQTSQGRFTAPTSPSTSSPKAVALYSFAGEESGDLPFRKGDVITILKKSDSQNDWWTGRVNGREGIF

T15: Lsb4, P32793
T15 sequence (P32793 402-468, looked up): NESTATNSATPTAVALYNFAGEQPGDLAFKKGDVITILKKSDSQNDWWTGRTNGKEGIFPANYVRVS

T16: Myo5, Q04439
T16 sequence (Q04439 1072-1160, looked up): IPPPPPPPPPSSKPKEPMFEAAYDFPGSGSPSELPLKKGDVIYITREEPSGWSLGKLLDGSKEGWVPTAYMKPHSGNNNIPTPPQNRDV

T17: Nbp2, Q12163
T17 sequence (Q12163 103-180, looked up): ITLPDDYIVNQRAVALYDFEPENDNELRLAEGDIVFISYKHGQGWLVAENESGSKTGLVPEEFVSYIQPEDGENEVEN

T18: Pex13, P80667
T18 sequence (P80667 295-386, looked up): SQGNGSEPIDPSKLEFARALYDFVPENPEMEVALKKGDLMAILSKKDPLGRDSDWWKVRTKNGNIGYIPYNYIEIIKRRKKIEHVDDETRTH

T19: Pin3, Q06449
T19 sequence (Q06449 53-122, looked up): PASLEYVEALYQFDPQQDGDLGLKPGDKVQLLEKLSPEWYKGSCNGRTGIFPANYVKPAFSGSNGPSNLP

T20: Sla1-2, P32790
T20 sequence (P32790 60-140, looked up): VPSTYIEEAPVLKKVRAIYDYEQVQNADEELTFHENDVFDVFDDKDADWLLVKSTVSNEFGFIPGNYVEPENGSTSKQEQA

T21: Sla1-3, P32790
T21 sequence (P32790 344-424, looked up): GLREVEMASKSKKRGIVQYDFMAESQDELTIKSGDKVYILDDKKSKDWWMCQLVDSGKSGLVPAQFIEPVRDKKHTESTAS


Each binder was assayed against T1, Abp1, P15891 (assay: SPOT array). Conditions: median of control spots 935.

Compared with AATTSTPPLPRRRAT, KKEKKPPKIPKKVYT is higher in SPOT intensity: 109 for the first, 161 for the second.

Binder NLKKRPPTAPQRKIS has an SPOT intensity of 564.

What follows are binders tested against T2, Bbc1, P47068 (assay: SPOT array). Conditions: median of control spots 796.

First: AATTSTPPLPRRRAT
Second: KKEKKPPKIPKKVYT
The SPOT intensity of the first is higher: 103 for the first, 0 for the second.

NLKKRPPTAPQRKIS gave an SPOT intensity of 31.

Each binder was assayed against Bem1-1, P29366 (assay: SPOT array). Conditions: median of control spots 4282.
Sequence of Bem1-1, P29366 (P29366 55-141): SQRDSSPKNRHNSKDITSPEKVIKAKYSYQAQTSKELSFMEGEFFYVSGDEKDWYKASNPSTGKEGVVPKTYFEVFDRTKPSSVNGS

First: AATTSTPPLPRRRAT
Second: KKEKKPPKIPKKVYT
The SPOT intensity of the first is lower: 0 for the first, 1 for the second.

Binder NLKKRPPTAPQRKIS has an SPOT intensity of 0.

The binders below were run against Bem1-2, P29366 (assay: SPOT array). Conditions: median of control spots 4347.
Sequence of Bem1-2, P29366 (P29366 139-227): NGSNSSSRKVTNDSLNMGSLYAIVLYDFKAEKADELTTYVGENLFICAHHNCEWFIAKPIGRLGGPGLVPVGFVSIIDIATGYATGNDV

First: AATTSTPPLPRRRAT
Second: KKEKKPPKIPKKVYT
The SPOT intensity of the first is lower: 0 for the first, 4 for the second.

With NLKKRPPTAPQRKIS the SPOT intensity was 51.

Each binder was assayed against T3, Boi1, P38041 (assay: SPOT array). Conditions: median of control spots 1162.

AATTSTPPLPRRRAT and KKEKKPPKIPKKVYT are the same in SPOT intensity: 0 for the first, 0 for the second.

In the case of NLKKRPPTAPQRKIS, the SPOT intensity is reported as 15.

These binders were tested against T4, Boi2, P39969 (assay: SPOT array). Conditions: median of control spots 1161.

Compared with AATTSTPPLPRRRAT, KKEKKPPKIPKKVYT is higher in SPOT intensity: 2 for the first, 3 for the second.

NLKKRPPTAPQRKIS showed an SPOT intensity of 0.

The binders below were run against T5, Bud14, P27637 (assay: SPOT array). Conditions: median of control spots 956.

Compared with AATTSTPPLPRRRAT, KKEKKPPKIPKKVYT is lower in SPOT intensity: 1 for the first, 0 for the second.

NLKKRPPTAPQRKIS gave an SPOT intensity of 25.

These binders were tested against T6, Bzz1-1, P38822 (assay: SPOT array). Conditions: median of control spots 4446.

AATTSTPPLPRRRAT and KKEKKPPKIPKKVYT are the same in SPOT intensity: 0 for the first, 0 for the second.

NLKKRPPTAPQRKIS gave an SPOT intensity of 22.

The binders below were run against T7, Bzz1-2, P38822 (assay: SPOT array). Conditions: median of control spots 4538.

Compared with AATTSTPPLPRRRAT, KKEKKPPKIPKKVYT is higher in SPOT intensity: 0 for the first, 18 for the second.

With NLKKRPPTAPQRKIS the SPOT intensity was 324.

What follows are binders tested against T8, Cdc25, P04821 (assay: SPOT array). Conditions: median of control spots 969.

First: AATTSTPPLPRRRAT
Second: KKEKKPPKIPKKVYT
The SPOT intensity of the first is higher: 4 for the first, 3 for the second.

In the case of NLKKRPPTAPQRKIS, the SPOT intensity is reported as 203.

These binders were tested against T9, Cyk3, Q07533 (assay: SPOT array). Conditions: median of control spots 1451.

AATTSTPPLPRRRAT and KKEKKPPKIPKKVYT are the same in SPOT intensity: 1 for the first, 1 for the second.

For NLKKRPPTAPQRKIS, the SPOT intensity was 2.

The binders below were run against T10, Fus1, P11710 (assay: SPOT array). Conditions: median of control spots 1200.

Compared with AATTSTPPLPRRRAT, KKEKKPPKIPKKVYT is higher in SPOT intensity: 0 for the first, 3 for the second.

NLKKRPPTAPQRKIS showed an SPOT intensity of 8.

What follows are binders tested against GST (assay: SPOT array). Conditions: median of control spots 978.

First: AATTSTPPLPRRRAT
Second: KKEKKPPKIPKKVYT
The SPOT intensity of the first is lower: 1 for the first, 3 for the second.

NLKKRPPTAPQRKIS showed an SPOT intensity of 2.

The binders below were run against T11, Hof1, Q05080 (assay: SPOT array). Conditions: median of control spots 4086.

First: AATTSTPPLPRRRAT
Second: KKEKKPPKIPKKVYT
The SPOT intensity of the first is higher: 5 for the first, 4 for the second.

In the case of NLKKRPPTAPQRKIS, the SPOT intensity is reported as 28.

The binders below were run against T12, Hse1, P38753 (assay: SPOT array). Conditions: median of control spots 1727.

Compared with AATTSTPPLPRRRAT, KKEKKPPKIPKKVYT is higher in SPOT intensity: 2 for the first, 12 for the second.

With NLKKRPPTAPQRKIS the SPOT intensity was 157.

These binders were tested against T13, Lsb1, P53281 (assay: SPOT array). Conditions: median of control spots 388.

First: AATTSTPPLPRRRAT
Second: KKEKKPPKIPKKVYT
The SPOT intensity of the first is higher: 243 for the first, 0 for the second.

Binder NLKKRPPTAPQRKIS has an SPOT intensity of 8.

What follows are binders tested against T14, Lsb3, P43603 (assay: SPOT array). Conditions: median of control spots 406.

Going from AATTSTPPLPRRRAT to KKEKKPPKIPKKVYT, the SPOT intensity falls from 877 to 0.

NLKKRPPTAPQRKIS showed an SPOT intensity of 45.

The binders below were run against T15, Lsb4, P32793 (assay: SPOT array). Conditions: median of control spots 397.

First: AATTSTPPLPRRRAT
Second: KKEKKPPKIPKKVYT
The SPOT intensity of the first is higher: 1360 for the first, 0 for the second.

NLKKRPPTAPQRKIS was tested, and the SPOT intensity was 141.

Each binder was assayed against Myo3, P36006 (assay: SPOT array). Conditions: median of control spots 468.

Going from AATTSTPPLPRRRAT to KKEKKPPKIPKKVYT, the SPOT intensity falls from 31 to 0.

Binder NLKKRPPTAPQRKIS has an SPOT intensity of 20.

Each binder was assayed against T16, Myo5, Q04439 (assay: SPOT array). Conditions: median of control spots 471.

AATTSTPPLPRRRAT and KKEKKPPKIPKKVYT are the same in SPOT intensity: 0 for the first, 0 for the second.

In the case of NLKKRPPTAPQRKIS, the SPOT intensity is reported as 3.

Each binder was assayed against T17, Nbp2, Q12163 (assay: SPOT array). Conditions: median of control spots 357.

AATTSTPPLPRRRAT and KKEKKPPKIPKKVYT are the same in SPOT intensity: 0 for the first, 0 for the second.

With NLKKRPPTAPQRKIS the SPOT intensity was 48.

These binders were tested against T18, Pex13, P80667 (assay: SPOT array). Conditions: median of control spots 1341.

First: AATTSTPPLPRRRAT
Second: KKEKKPPKIPKKVYT
The SPOT intensity of the first is higher: 364 for the first, 0 for the second.

NLKKRPPTAPQRKIS gave an SPOT intensity of 13.

Each binder was assayed against T19, Pin3, Q06449 (assay: SPOT array). Conditions: median of control spots 2171.

First: AATTSTPPLPRRRAT
Second: KKEKKPPKIPKKVYT
The SPOT intensity of the first is higher: 35 for the first, 1 for the second.

With NLKKRPPTAPQRKIS the SPOT intensity was 7.

Each binder was assayed against Rvs167, P39743 (assay: SPOT array). Conditions: median of control spots 2707.
Sequence of Rvs167, P39743 (P39743 419-482): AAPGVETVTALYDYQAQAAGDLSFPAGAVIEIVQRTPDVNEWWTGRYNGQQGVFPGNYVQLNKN

First: AATTSTPPLPRRRAT
Second: KKEKKPPKIPKKVYT
The SPOT intensity of the first is higher: 2280 for the first, 0 for the second.

In the case of NLKKRPPTAPQRKIS, the SPOT intensity is reported as 18.

The binders below were run against Sho1, P40073 (assay: SPOT array). Conditions: median of control spots 1148.
Sequence of Sho1, P40073 (P40073 287-367): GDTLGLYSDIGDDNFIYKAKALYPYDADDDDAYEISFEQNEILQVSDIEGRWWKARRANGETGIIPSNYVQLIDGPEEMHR

First: AATTSTPPLPRRRAT
Second: KKEKKPPKIPKKVYT
The SPOT intensity of the first is higher: 38 for the first, 16 for the second.

Work on NLKKRPPTAPQRKIS yielded an SPOT intensity of 229.

Each binder was assayed against T20, Sla1-2, P32790 (assay: SPOT array). Conditions: median of control spots 712.

AATTSTPPLPRRRAT and KKEKKPPKIPKKVYT are the same in SPOT intensity: 0 for the first, 0 for the second.

Binder NLKKRPPTAPQRKIS has an SPOT intensity of 3.

What follows are binders tested against T21, Sla1-3, P32790 (assay: SPOT array). Conditions: median of control spots 5475.

Compared with AATTSTPPLPRRRAT, KKEKKPPKIPKKVYT is higher in SPOT intensity: 0 for the first, 12 for the second.

Binder NLKKRPPTAPQRKIS has an SPOT intensity of 161.
